We go through two molecules from article PMC5511170, “Deviation of the typical AAA substrate-threading pore prevents fatal protein degradation in yeast Cdc48” (Scientific Reports, 2017).

The assay has as its target T1, GST-Ufd2 (yeast (Saccharomyces cerevisiae), UniProt P54860 1-961).
T1 construct: Ufd2, E4 ubiquitin ligase, yeast, cloned in pGEX6P-1; Cloned in pGEX6P-1; source: E. coli BL21, purified (glutathione-sepharose)
T1 sequence (looked up): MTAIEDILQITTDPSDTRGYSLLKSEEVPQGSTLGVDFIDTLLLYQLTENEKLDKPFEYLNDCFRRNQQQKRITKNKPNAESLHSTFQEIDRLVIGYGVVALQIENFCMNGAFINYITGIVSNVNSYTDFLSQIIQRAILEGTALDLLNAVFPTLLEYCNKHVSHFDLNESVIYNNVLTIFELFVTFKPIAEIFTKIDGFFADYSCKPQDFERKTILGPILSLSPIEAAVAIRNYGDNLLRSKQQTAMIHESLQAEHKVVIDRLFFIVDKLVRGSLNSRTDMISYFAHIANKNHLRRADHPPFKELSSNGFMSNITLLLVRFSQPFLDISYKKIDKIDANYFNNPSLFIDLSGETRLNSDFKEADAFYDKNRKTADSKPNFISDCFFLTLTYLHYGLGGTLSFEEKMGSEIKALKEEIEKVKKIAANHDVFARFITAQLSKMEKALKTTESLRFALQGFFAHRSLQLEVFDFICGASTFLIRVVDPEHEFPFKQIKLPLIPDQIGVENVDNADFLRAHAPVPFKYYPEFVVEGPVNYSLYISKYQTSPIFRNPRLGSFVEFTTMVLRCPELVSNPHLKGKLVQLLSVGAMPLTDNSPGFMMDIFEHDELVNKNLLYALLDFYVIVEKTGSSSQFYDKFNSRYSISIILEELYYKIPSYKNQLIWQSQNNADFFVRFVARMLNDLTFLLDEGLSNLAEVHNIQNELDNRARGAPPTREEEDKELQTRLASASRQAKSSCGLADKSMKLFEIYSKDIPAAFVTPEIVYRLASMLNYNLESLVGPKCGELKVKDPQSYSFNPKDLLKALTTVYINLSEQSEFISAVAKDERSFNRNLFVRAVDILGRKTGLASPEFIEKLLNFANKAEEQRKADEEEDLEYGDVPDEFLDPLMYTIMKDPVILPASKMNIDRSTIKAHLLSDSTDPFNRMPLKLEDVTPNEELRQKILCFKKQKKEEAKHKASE
Kind of assay: pull-down; GST-Ufd2 (40 pmol) incubated with 20 pmol Cdc48 in 100 µL 20 mM Tris-HCl pH 7.4, 50 mM NaCl, 1 mM MgCl2, 5 mM β-mercaptoethanol, 20% glycerol, 10 min at 25 °C; then glutathione-sepharose 4B 30 min at room temperature; eluted with glutathione; immunoblot with anti-Cdc48 and anti-GST. Conditions: both partners purified. (In general: In western blotting, separated proteins are transferred to a membrane and probed.)

B1: wild-type Cdc48 (N-terminally His-tagged) (natural protein, Saccharomyces cerevisiae, UniProt P25694 1-835, looked up)
chain: MGEEHKPLLDASGVDPREEDKTATAILRRKKKDNMLLVDDAINDDNSVIAINSNTMDKLELFRGDTVLVKGKKRKDTVLIVLIDDELEDGACRINRVVRNNLRIRLGDLVTIHPCPDIKYATRISVLPIADTIEGITGNLFDVFLKPYFVEAYRPVRKGDHFVVRGGMRQVEFKVVDVEPEEYAVVAQDTIIHWEGEPINREDEENNMNEVGYDDIGGCRKQMAQIREMVELPLRHPQLFKAIGIKPPRGVLMYGPPGTGKTLMARAVANETGAFFFLINGPEVMSKMAGESESNLRKAFEEAEKNAPAIIFIDEIDSIAPKRDKTNGEVERRVVSQLLTLMDGMKARSNVVVIAATNRPNSIDPALRRFGRFDREVDIGIPDATGRLEVLRIHTKNMKLADDVDLEALAAETHGYVGADIASLCSEAAMQQIREKMDLIDLDEDEIDAEVLDSLGVTMDNFRFALGNSNPSALRETVVESVNVTWDDVGGLDEIKEELKETVEYPVLHPDQYTKFGLSPSKGVLFYGPPGTGKTLLAKAVATEVSANFISVKGPELLSMWYGESESNIRDIFDKARAAAPTVVFLDELDSIAKARGGSLGDAGGASDRVVNQLLTEMDGMNAKKNVFVIGATNRPDQIDPAILRPGRLDQLIYVPLPDENARLSILNAQLRKTPLEPGLELTAIAKATQGFSGADLLYIVQRAAKYAIKDSIEAHRQHEAEKEVKVEGEDVEMTDEGAKAEQEPEVDPVPYITKEHFAEAMKTAKRSVSDAELRRYEAYSQQMKASRGQFSNFNFNDAPLGTTATDNANSNNSAPSGAGAAFGSNAEEDDDLYS
notes: Cdc48, Saccharomyces cerevisiae, wild type, cloned in pET15b; Cloned in pET15b; also called WT; yeast Cdc48
Regarding B1, the binding result is recorded as “binds”.

B2: Cdc48 M288Y mutant (N-terminally His-tagged) (natural protein, Saccharomyces cerevisiae, UniProt P25694 1-835, looked up)
chain: MGEEHKPLLDASGVDPREEDKTATAILRRKKKDNMLLVDDAINDDNSVIAINSNTMDKLELFRGDTVLVKGKKRKDTVLIVLIDDELEDGACRINRVVRNNLRIRLGDLVTIHPCPDIKYATRISVLPIADTIEGITGNLFDVFLKPYFVEAYRPVRKGDHFVVRGGMRQVEFKVVDVEPEEYAVVAQDTIIHWEGEPINREDEENNMNEVGYDDIGGCRKQMAQIREMVELPLRHPQLFKAIGIKPPRGVLMYGPPGTGKTLMARAVANETGAFFFLINGPEVMSKYAGESESNLRKAFEEAEKNAPAIIFIDEIDSIAPKRDKTNGEVERRVVSQLLTLMDGMKARSNVVVIAATNRPNSIDPALRRFGRFDREVDIGIPDATGRLEVLRIHTKNMKLADDVDLEALAAETHGYVGADIASLCSEAAMQQIREKMDLIDLDEDEIDAEVLDSLGVTMDNFRFALGNSNPSALRETVVESVNVTWDDVGGLDEIKEELKETVEYPVLHPDQYTKFGLSPSKGVLFYGPPGTGKTLLAKAVATEVSANFISVKGPELLSMWYGESESNIRDIFDKARAAAPTVVFLDELDSIAKARGGSLGDAGGASDRVVNQLLTEMDGMNAKKNVFVIGATNRPDQIDPAILRPGRLDQLIYVPLPDENARLSILNAQLRKTPLEPGLELTAIAKATQGFSGADLLYIVQRAAKYAIKDSIEAHRQHEAEKEVKVEGEDVEMTDEGAKAEQEPEVDPVPYITKEHFAEAMKTAKRSVSDAELRRYEAYSQQMKASRGQFSNFNFNDAPLGTTATDNANSNNSAPSGAGAAFGSNAEEDDDLYS
notes: Cdc48, Saccharomyces cerevisiae, with M288Y in the D1 pore loop, cloned in pET15b; Cloned in pET15b
Regarding B2, the binding result is “binds”.
